The text below walks through data of the supplement of paper PMC9170038.

The series concerns MS2 coat protein. Nature of the series: apparent KD of MS2 coat protein; designed switch direction (-1 OFF switch, 1 ON switch): 1; higher = weaker reporter binding. Put shortly: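 Normalised cluster fluorescence was curve-fitted, and each design's median over clusters is its apparent KD. Before this, SNAP-549-labelled MS2 coat protein was titrated from 0.7 or 1.5 nM, doubling to 3 µM, over RNA switches transcribed on Illumina chips by stalled E. coli RNA polymerase. Titrations had no input, 200 uM small-molecule ligand, or an oligonucleotide input, and steps lasted 0.8–1.5 h (lowest) to 10–20 min (highest).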

Setting [1] is: Eterna round: R95, input ligand: FMN 200 uM.
Setting [2] is: Eterna round: R95, input ligand: microRNA oligo, concentration not stated.
Where [3] appears, read: Eterna round: R95, input ligand: none.
[4] abbreviates: input ligand: microRNA oligo, concentration not stated.

Take “CUACUACAUGAGGAUCACCCAUGUUGUAGUGAUGCAGGAUAUGUGUGACCAGAAGAUGAAACAGAAGGGCAAAGAA [JR_SS!_Sub002] (puzzle: Same State 1)”: the “apparent KD of MS2 coat protein” value was 0.0135 µM under setting [1], 0.0159 µM under setting [2] and 0.0152 µM under setting [3].

Regarding “CUCAAACAUGAGGAUCACCCAUGUGUUGUCAUGGGAGGAUAUCUAAGUUCAUUGUAUUCGGGAGAAGGCCUAUGUC [× ×•×ª×• ×ž×“×™× ×” × ×—×ª-09] (puzzle: Same State 1)”, the “apparent KD of MS2 coat protein” value under setting [2] was found to be 0.362 µM.

For “CUGACAUGUCAAGGAUAUCACGUCGAUUAGACGUGAGAAGGUGAUCUACACAUGAGGAUCACCCAUGUGUUACGUGGGAGUCAG [Brourd's SSNG1/1-A2 mod 19] (Eterna round: R96, puzzle: Same State NG 1)”, the “apparent KD of MS2 coat protein” value reads like this: (input ligand: FMN 200 uM) 0.0549 µM; under setting [4], 0.113 µM; (input ligand: none) 0.162 µM.

As to “CUGAGCAAUCGAGGAUAUCACGUCGUUUAGACGUGAGAAGGCGAUCAUAACAUGAGGAUCACCCAUGUAUUACAUGAAGCUCAG [SSNG1/4-A3] (Eterna round: R96, puzzle: Same State NG 1)”, the “apparent KD of MS2 coat protein” value runs as follows: (input ligand: FMN 200 uM) 0.0136 µM; under setting [4], 0.0101 µM; (input ligand: none) 0.0133 µM.

On to “CUGAGCGAUCUAGGAUAUCACGUCGAUUAGACGUGAGAAGGAGAUCAUAACAUGAGGAUCACCCAUGUAUUACAUGAAGCUCAG [SSNG1/6-A2] (Eterna round: R96, puzzle: Same State NG 1)”, for which the “apparent KD of MS2 coat protein” value runs as follows: (input ligand: FMN 200 uM) 0.0175 µM; under setting [4], 0.00915 µM; (input ligand: none) 0.0196 µM.

Consider “CUUUAUCACUAUACAUGAGGAUCACCCAUGUUAUCAUCAUGAGAGGAUAUCGUAUUUGGAUUUUUCGAGAAGGCUCUUUUGUAU [JR_SSNG3_Sub076] (Eterna round: R96, puzzle: Same State NG 3)”, for which the “apparent KD of MS2 coat protein” value under setting [4] was 0.0904 µM.

On to “CUUUUUAAUGCAGGAUAUGAUCAACAUGAGGAUCACCCAUGUGGUGUUGUGAGUAAGGAGAGUGAUCAGAAGGGCAUCUUUUCA [SS-NG2-LRO04] (Eterna round: R96, puzzle: Same State NG 2)”, for which the “apparent KD of MS2 coat protein” value worked out at 0.737 µM (input ligand: FMN 200 uM), 0.415 µM under setting [4] and 0.435 µM (input ligand: none).

In the case of “CUUUUUAGUGCAGGAUAUGAUCAACAUGAGGAUCACCCAUGUGGCGUUGUGAGUAGGGAGAGUGAUCAGAAGGGCGUCUCCUCG [SS-NG2-LRO10] (Eterna round: R96, puzzle: Same State NG 2)”, the “apparent KD of MS2 coat protein” value by setting is: (input ligand: FMN 200 uM) 0.0407 µM; under setting [4], 0.0557 µM; (input ligand: none) 0.0392 µM.

As for “GAAAAACAUGAGGAUCACCCAUGUGUAAACAAGGGAGGAUAUACAAAGACGUAAGUCAAAGUAGAAGGCCUAAAAG [Garnet 38] (Eterna round: R96, puzzle: Same State 1)”, the “apparent KD of MS2 coat protein” value (input ligand: FMN 200 uM) is 0.0196 µM, the “apparent KD of MS2 coat protein” value under setting [4] was found to be 0.0543 µM and the “apparent KD of MS2 coat protein” value (input ligand: none) is 0.0718 µM.

Take “GAAAAGGCGACGCAGGAUAUGAAAGGUGAAACAUGAGGAUCACCCAUGUGCUACCUUCCGAUAAAUCAGAAGGGCGACGCCUAGA [Azaanre] (puzzle: Same State 2)”: the “apparent KD of MS2 coat protein” value reads like this: under setting [1], 0.0114 µM; under setting [2], 0.00979 µM; under setting [3], 0.0113 µM.

Turning to “GAAUAAGUUUACGAGGAUAUGUUCCGCAUAACAUGAGGAUCACCCAUGUGAACAAGAAAGGCGACGCAGAAGGCGUGAGCAGAAG [Mat - Same State 2 - Mod of UCT - D100] (puzzle: Same State 2)”, the “apparent KD of MS2 coat protein” value runs as follows: under setting [1], 0.023 µM; under setting [2], 0.0114 µM; under setting [3], 0.117 µM.

For “GAAUAGUUGAGAGGAUAUCUAUGAUAAAAGGAUAGAGAAGGUUUUAACAUGAGGAUCACCCAUGUAGGACUAUAUAUGUGAAUA [Parity 82 - Jieux - Same State NG 1] (Eterna round: R96, puzzle: Same State NG 1)”, the “apparent KD of MS2 coat protein” value was determined as 0.0125 µM (input ligand: FMN 200 uM), 0.0119 µM under setting [4] and 0.0169 µM (input ligand: none).

Turning to “GAAUAGUUGAGAGGAUAUCUAUUAUAAAAGGAUAGAGAAGGUUUUAACAUGAGGAUCACCCAUGUAGGACUAUAUAUGUGAAUA [Parity 100 - Jieux - Same State NG 1] (Eterna round: R96, puzzle: Same State NG 1)”, the “apparent KD of MS2 coat protein” value is 0.0162 µM (input ligand: FMN 200 uM), 0.0136 µM under setting [4] and 0.0161 µM (input ligand: none).

“GACCGCGAGGAAGGAUAUGGAGCCUAAUAGGCUCCAGAAGGUCCAUAAAGGACAUGAGGAUCACCCAUGUGGGCUGAAGCGGUC [Mat - Same State NG 1 - JL mod - D74] (Eterna round: R96, puzzle: Same State NG 1)”: the “apparent KD of MS2 coat protein” value runs as follows: (input ligand: FMN 200 uM) 0.0183 µM; under setting [4], 0.0214 µM; (input ligand: none) 0.0347 µM.

For “GACUAUCUAUCUCAGGAUAUCAUGUCAAAGACAUGAGGAUCACCCAUGUACCAGGAAACUGGUUAUGAGAAGGGAGAUAGAUAGA [Mat - Same State 2 - Mod - D44] (puzzle: Same State 2)”, the “apparent KD of MS2 coat protein” value is 0.13 µM under setting [1], 0.0581 µM under setting [2] and 0.991 µM under setting [3].

Consider “GAGAGAGGGCGAGGAUAUUCGGUGAUAAUGAUGGAAGAAGGCGCAGACAUGAGGAUCACCCAUGUGGGAAUAAUCCAGAGAGAG [Parity 14 - Jieux - Same State NG 1] (Eterna round: R96, puzzle: Same State NG 1)”, for which the “apparent KD of MS2 coat protein” value was 0.206 µM (input ligand: FMN 200 uM), 0.101 µM under setting [4] and 0.131 µM (input ligand: none).

As for “GAGAGAGGGUGAGGAUAUUUAGUGAUAAUGAUAAAAGAAGGCACAGACAUGAGGAUCACCCAUGUGGGAAUAAUCCAGAGAGAG [Parity 4 - Jieux - Same State NG 1] (Eterna round: R96, puzzle: Same State NG 1)”, under setting [4], the “apparent KD of MS2 coat protein” value is 0.238 µM.

Take “GAGAGGAUAUGGAGAGGAUCACCCUCUAGAAGGCUCGAAGGAGAGGAUAUGGAGAGGAUCACCCUCUAGAAGGCUCACUUCUCU [pwkr ssNG3 DX 2xF5 +2xFMN.6] (Eterna round: R96, puzzle: Same State NG 3)”: the “apparent KD of MS2 coat protein” value was found to be 0.256 µM (input ligand: FMN 200 uM), 0.105 µM under setting [4] and 0.156 µM (input ligand: none).

For the sequence “GAGCCAGUCCGAGGAUAUUCAUAUUAACAUGAGGAUCACCCAUGUAGGCUCAGAAAGGAGCCUUGGGAGAAGGCGGACUGGCUC [Xeonanisa<<2] (Eterna round: R96, puzzle: Same State NG 2)”, the “apparent KD of MS2 coat protein” value (input ligand: FMN 200 uM) amounted to 0.0149 µM, the “apparent KD of MS2 coat protein” value under setting [4] stood at 0.114 µM and the “apparent KD of MS2 coat protein” value (input ligand: none) amounted to 0.251 µM.

On to “GAGCCAGUCCGAGGAUAUUCGUAGUACCACAUGAGGAUCACCCAUGUGGGCUCAGAAGAGCCCUUGGAGAAGGCGGGCUGGCUC [SS-NG2-LRO20] (Eterna round: R96, puzzle: Same State NG 2)”, for which the “apparent KD of MS2 coat protein” value runs as follows: (input ligand: FMN 200 uM) 0.00967 µM; under setting [4], 0.00599 µM; (input ligand: none) 0.0124 µM.

On to “GAGCCAGUCCGAGGAUAUUCGUAUUAACACAUGAGGAUCACCCAUGUGGGCUCAGAAGAGCCCUGGGAGAAGGCGGGCUGGCUC [SS-NG2-LRO17] (Eterna round: R96, puzzle: Same State NG 2)”, for which the “apparent KD of MS2 coat protein” value (input ligand: FMN 200 uM) stood at 0.0118 µM, the “apparent KD of MS2 coat protein” value under setting [4] came out at 0.0309 µM and the “apparent KD of MS2 coat protein” value (input ligand: none) stood at 0.0484 µM.

As to “GAGGGACAGACCAACAUGAGGAUCACCCAUGUCCUCGCAGGUCAGGAUAUCAUGAGGAUCACCCAUGAGAAGGGACGGUGAACC (Eterna round: R96, puzzle: Same State NG 3)”, the “apparent KD of MS2 coat protein” value (input ligand: FMN 200 uM) came to 0.155 µM, the “apparent KD of MS2 coat protein” value under setting [4] was 0.125 µM and the “apparent KD of MS2 coat protein” value (input ligand: none) was found to be 0.149 µM.

As to “GAGUGGUUGGGAGGAUAUGCAUUGUUAUUAAAUGCAGAAGGUUUUAACAUGAGGAUCACCCAUGUAGGACUAUUCCUGUGUUUC [Parity 68 - Jieux - Same State NG 1] (Eterna round: R96, puzzle: Same State NG 1)”, the “apparent KD of MS2 coat protein” value under setting [4] came to 0.0126 µM.

“GAGUUACAUGAGGAUCACCCAUGUUGUUGUGGAUAAGGAUAUAUGGUAGGAAGAGGAAUGAUAGAAGGUAUUAGGG [JR_SS1_Sub064] (puzzle: Same State 1)”: the “apparent KD of MS2 coat protein” value under setting [2] is 0.0347 µM.

Regarding “GAUAAACAUGAGGAUCACCCAUGUAAUAAUAUGGGAGGAUAUCAGAAUGUAUGUAUGUAAUGAGAAGGCCUAAUAG [Mat - Same State 1 - Mod of Eli - D72] (puzzle: Same State 1)”, the “apparent KD of MS2 coat protein” value reads like this: under setting [1], 0.0767 µM; under setting [2], 0.229 µM; under setting [3], 0.391 µM.

As for “GAUAAACAUGAGGAUCACCCAUGUGUGAAUAUGGGAGGAUAUACGUGGACCGUAGUCCGCGUAGAAGGCCUAAUUG [Mat - Same State 1 - Mod of JL - D20] (puzzle: Same State 1)”, the “apparent KD of MS2 coat protein” value under setting [2] came out at 0.166 µM.

Take “GAUUAACAUGAGGAUCACCCAUGUCGUUAAAUGGGAGGAUAUACGUGGACCGUAGUCCGCGUAGAAGGCCUAAUUG [Mat - Same State 1 - Mod of JL - D22] (puzzle: Same State 1)”: the “apparent KD of MS2 coat protein” value under setting [2] is 0.101 µM.

For the sequence “GAUUAACAUGAGGAUCACCCAUGUGUGAAUAUGGGAGGAUAUACGUGGACCGUAGUCCGCGUAGAAGGCCUAAUUG [JL-ss1-3.20 janelle mod] (puzzle: Same State 1)”, under setting [2], the “apparent KD of MS2 coat protein” value is 0.223 µM.

For “GCACUCCUAGGAGCUGCGACAUGAGGAUCACCCAUGUAAUCACAGGAUAUGCAAUUCUGAAUUUUGCAGAAGGGUGAUAGGAAA [Zausorbi] (Eterna round: R96, puzzle: Same State NG 3)”, the “apparent KD of MS2 coat protein” value by setting is: (input ligand: FMN 200 uM) 0.413 µM; under setting [4], 0.27 µM; (input ligand: none) 0.263 µM.
